Article PMC9482650, “Quantitative fragmentomics allow affinity mapping of interactomes” (Nature Communications, 2022)
Blank lines part the entries; values can stand above or below the binder they belong to.

Columns and labels:
Assay in all cases: holdup assay
Parameters in all cases: key: below the threshold = too weak to quantify, mostly under pKd 3.1 to 4
GORASP1, Q9BQQ3 = biological target: GORASP1, Q9BQQ3
Inadl_2, Q8NI35 = biological target: Inadl_2, Q8NI35
Inadl_6, Q8NI35 = biological target: Inadl_6, Q8NI35
Inadl_6, Q8NI35, sequence (Q8NI35 1058-1167): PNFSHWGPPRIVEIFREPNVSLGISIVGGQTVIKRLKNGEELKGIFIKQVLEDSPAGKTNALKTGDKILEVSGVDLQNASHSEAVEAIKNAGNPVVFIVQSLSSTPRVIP

GRID2IP_1, A4D2P6 = biological target: GRID2IP_1, A4D2P6
GRID2IP_1, A4D2P6, sequence (A4D2P6 1-87): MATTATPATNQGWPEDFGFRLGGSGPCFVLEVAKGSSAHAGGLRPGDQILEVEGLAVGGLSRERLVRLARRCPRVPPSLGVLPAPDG

LIN7C, Q9NUP9 = biological target: T1, LIN7C, Q9NUP9
T1 sequence (Q9NUP9 88-185, limits assumed, looked up): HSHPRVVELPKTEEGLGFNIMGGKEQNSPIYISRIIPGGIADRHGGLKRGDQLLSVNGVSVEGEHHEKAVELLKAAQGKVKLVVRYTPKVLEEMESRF

TJP3_3, O95049 = biological target: T2, TJP3_3, O95049
T2 sequence (O95049 375-456, limits assumed, looked up): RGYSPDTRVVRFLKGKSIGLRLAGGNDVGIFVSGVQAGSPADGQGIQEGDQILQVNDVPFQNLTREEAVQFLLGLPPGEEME

SCRIB_2, Q14160 = biological target: SCRIB_2, Q14160
SCRIB_2, Q14160, sequence (Q14160 857-960): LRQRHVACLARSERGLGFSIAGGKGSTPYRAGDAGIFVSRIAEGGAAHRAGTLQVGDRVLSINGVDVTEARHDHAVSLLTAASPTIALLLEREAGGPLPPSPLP

HTRA2, O43464 = biological target: HTRA2, O43464
HTRA2, O43464, sequence (O43464 355-458): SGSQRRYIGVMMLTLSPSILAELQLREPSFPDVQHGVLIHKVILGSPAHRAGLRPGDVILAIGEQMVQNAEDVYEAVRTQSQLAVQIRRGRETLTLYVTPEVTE

TJP1_3, Q07157 = biological target: TJP1_3, Q07157
TJP1_3, Q07157, sequence (Q07157 416-512): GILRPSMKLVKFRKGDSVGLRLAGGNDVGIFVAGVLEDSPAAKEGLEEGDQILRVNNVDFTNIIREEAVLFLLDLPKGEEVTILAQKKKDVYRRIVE

PICK1, Q9NRD5 = biological target: PICK1, Q9NRD5
PICK1, Q9NRD5, sequence (Q9NRD5 17-115): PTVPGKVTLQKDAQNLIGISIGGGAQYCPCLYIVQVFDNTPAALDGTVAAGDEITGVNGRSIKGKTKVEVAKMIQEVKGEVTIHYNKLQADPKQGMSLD

Inadl_10, Q8NI35 = biological target: Inadl_10, Q8NI35
Inadl_10, Q8NI35, sequence (Q8NI35 1673-1763): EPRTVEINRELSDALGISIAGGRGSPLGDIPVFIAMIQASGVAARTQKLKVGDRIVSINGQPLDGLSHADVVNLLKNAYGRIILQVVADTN

TJP1_2, Q07157 = biological target: TJP1_2, Q07157
TJP1_2, Q07157, sequence (Q07157 181-274): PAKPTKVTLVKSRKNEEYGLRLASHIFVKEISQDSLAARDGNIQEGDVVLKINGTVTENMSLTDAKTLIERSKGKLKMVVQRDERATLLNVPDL

Inadl_1, Q8NI35 = biological target: Inadl_1, Q8NI35
Inadl_1, Q8NI35, sequence (Q8NI35 113-229): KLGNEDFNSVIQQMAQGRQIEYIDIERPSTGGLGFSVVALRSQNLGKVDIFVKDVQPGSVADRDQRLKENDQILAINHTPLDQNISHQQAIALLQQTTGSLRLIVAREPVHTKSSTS

MAGI3_2, Q5TCQ9 = biological target: MAGI3_2, Q5TCQ9
MAGI3_2, Q5TCQ9, sequence (Q5TCQ9 398-503): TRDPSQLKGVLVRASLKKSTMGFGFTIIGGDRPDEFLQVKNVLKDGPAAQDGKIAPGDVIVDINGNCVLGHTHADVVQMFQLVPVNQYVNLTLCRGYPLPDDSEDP

DLG5_1, Q8TDM6 = biological target: DLG5_1, Q8TDM6
DLG5_1, Q8TDM6, sequence (Q8TDM6 617-713): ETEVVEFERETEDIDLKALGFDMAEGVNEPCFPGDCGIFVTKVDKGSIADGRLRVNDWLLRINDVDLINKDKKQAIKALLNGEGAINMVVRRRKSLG

SNTB1, Q13884 = biological target: T3, SNTB1, Q13884
T3 sequence (Q13884 107-205, limits assumed, looked up): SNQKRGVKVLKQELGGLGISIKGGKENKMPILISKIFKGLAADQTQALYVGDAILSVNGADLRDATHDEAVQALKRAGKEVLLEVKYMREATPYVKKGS

LNX1_1, Q8TBB1 = biological target: LNX1_1, Q8TBB1
LNX1_1, Q8TBB1, sequence (Q8TBB1 261-371): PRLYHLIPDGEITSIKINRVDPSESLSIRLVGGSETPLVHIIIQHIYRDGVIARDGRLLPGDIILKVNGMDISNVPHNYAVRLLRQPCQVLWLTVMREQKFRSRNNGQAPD

GRIP2_7, Q9C0E4 = biological target: GRIP2_7, Q9C0E4
GRIP2_7, Q9C0E4, sequence (Q9C0E4 934-1023): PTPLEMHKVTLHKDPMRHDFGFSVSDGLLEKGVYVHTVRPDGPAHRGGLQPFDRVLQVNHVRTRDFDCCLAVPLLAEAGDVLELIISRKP

DFNB31_3, Q9P202 = biological target: T4, DFNB31_3, Q9P202
T4 sequence (Q9P202 811-907, limits assumed, looked up): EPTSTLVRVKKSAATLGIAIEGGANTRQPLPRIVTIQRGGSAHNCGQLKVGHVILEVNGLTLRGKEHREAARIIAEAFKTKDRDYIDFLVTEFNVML

DFNB31_2, Q9P202 = biological target: T5, DFNB31_2, Q9P202
T5 sequence (Q9P202 274-371, limits assumed, looked up): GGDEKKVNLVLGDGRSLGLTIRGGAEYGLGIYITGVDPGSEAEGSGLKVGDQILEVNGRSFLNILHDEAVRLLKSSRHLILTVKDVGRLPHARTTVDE

GRIP1_7, Q9Y3R0 = biological target: T6, GRIP1_7, Q9Y3R0
T6 sequence (Q9Y3R0 999-1096, limits assumed, looked up): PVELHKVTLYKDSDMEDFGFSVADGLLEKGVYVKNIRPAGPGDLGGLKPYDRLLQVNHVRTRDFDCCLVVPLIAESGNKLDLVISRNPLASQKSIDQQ

NHERF4_1, Q86UT5-2 = biological target: NHERF4_1, Q86UT5-2
NHERF4_1, Q86UT5-2, sequence (Q86UT5 other isoform, or with tags, fused parts or gaps): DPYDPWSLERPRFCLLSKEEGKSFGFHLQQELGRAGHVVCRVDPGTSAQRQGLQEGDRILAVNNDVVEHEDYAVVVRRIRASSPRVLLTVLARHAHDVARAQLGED

LNX2_3, Q8N448 = biological target: T7, LNX2_3, Q8N448
T7 sequence (Q8N448 463-564, limits assumed, looked up): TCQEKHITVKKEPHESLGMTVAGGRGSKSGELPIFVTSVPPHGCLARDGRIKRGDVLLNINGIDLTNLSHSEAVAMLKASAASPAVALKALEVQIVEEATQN

MPDZ_10, O75970 = biological target: T8, MPDZ_10, O75970
T8 sequence (O75970 1624-1722, limits assumed, looked up): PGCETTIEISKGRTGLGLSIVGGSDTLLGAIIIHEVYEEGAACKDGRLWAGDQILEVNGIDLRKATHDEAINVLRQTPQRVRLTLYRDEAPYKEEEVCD

CASK, O14936 = biological target: CASK, O14936
CASK, O14936, sequence (O14936 487-570): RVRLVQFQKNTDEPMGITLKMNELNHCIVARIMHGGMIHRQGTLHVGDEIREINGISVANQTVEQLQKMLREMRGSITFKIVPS

GRID2IP_2, A4D2P6 = biological target: GRID2IP_2, A4D2P6
GRID2IP_2, A4D2P6, sequence (A4D2P6 272-370): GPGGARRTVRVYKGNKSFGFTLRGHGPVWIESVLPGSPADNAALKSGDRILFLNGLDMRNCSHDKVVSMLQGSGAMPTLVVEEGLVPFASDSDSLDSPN

MPP7, Q5T2T1 = biological target: T9, MPP7, Q5T2T1
T9 sequence (Q5T2T1 134-230, limits assumed, looked up): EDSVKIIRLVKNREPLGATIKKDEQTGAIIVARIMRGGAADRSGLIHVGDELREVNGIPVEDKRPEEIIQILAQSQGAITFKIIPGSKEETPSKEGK

GRIP2_5, Q9C0E4 = biological target: GRIP2_5, Q9C0E4
GRIP2_5, Q9C0E4, sequence (Q9C0E4 544-642): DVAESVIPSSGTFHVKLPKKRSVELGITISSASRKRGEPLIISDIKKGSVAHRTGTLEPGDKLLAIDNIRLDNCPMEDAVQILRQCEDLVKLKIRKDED

[1] = plain residues with an end cap or a label only (N-terminal biotin on a linker: ahx)
[2] = plain residues with an end cap or a label only (N-terminal biotin on a linker: ttds)

Inadl_2, Q8NI35, sequence (Q8NI35 238-335): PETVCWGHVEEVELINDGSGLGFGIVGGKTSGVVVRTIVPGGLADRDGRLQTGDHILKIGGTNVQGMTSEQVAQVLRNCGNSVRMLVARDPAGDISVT
GORASP1, Q9BQQ3, sequence (Q9BQQ3 1-208): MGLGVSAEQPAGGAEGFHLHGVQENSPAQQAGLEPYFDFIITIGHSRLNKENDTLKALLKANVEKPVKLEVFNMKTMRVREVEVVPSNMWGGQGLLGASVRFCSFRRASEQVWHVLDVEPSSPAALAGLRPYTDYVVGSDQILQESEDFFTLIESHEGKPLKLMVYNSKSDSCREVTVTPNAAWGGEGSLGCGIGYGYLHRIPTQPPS

- pKd (GORASP1, Q9BQQ3; [1]): below the threshold
- pKd (Inadl_2, Q8NI35; [1]): below the threshold
- pKd (Inadl_6, Q8NI35; [1]): below the threshold
- pKd (GRID2IP_1, A4D2P6; [1]): below the threshold
- pKd (LIN7C, Q9NUP9; [1]): below the threshold
- pKd (TJP3_3, O95049; [1]): below the threshold
- pKd (SCRIB_2, Q14160; [1]): below the threshold
- pKd (HTRA2, O43464; [1]): below the threshold
- pKd (TJP1_3, Q07157; [1]): below the threshold
- pKd (PICK1, Q9NRD5; [1]): below the threshold
- pKd (Inadl_10, Q8NI35; [1]): below the threshold
- pKd (TJP1_2, Q07157; [1]): below the threshold
- pKd (Inadl_1, Q8NI35; [1]): below the threshold
- pKd (MAGI3_2, Q5TCQ9; [1]): below the threshold
- pKd (DLG5_1, Q8TDM6; [1]): below the threshold
- pKd (SNTB1, Q13884; [1]): below the threshold
- pKd (LNX1_1, Q8TBB1; [1]): 3.67
- pKd (GRIP2_7, Q9C0E4; [1]): below the threshold
- pKd (DFNB31_3, Q9P202; [1]): below the threshold
- pKd (DFNB31_2, Q9P202; [1]): below the threshold
- pKd (GRIP1_7, Q9Y3R0; [1]): below the threshold
- pKd (NHERF4_1, Q86UT5-2; [1]): below the threshold
- pKd (LNX2_3, Q8N448; [1]): below the threshold
- pKd (MPDZ_10, O75970; [1]): 4
- pKd (CASK, O14936; [1]): below the threshold
- pKd (GRID2IP_2, A4D2P6; [1]): below the threshold
- pKd (MPP7, Q5T2T1; [1]): below the threshold
- pKd (GRIP2_5, Q9C0E4; [1]): below the threshold
B1: PDLIM2, Q96JY6 (peptide)
chain: SAPATLSSRA

- pKd (GORASP1, Q9BQQ3; [2]): 4.02
- pKd (Inadl_2, Q8NI35; [2]): below the threshold
- pKd (Inadl_6, Q8NI35; [2]): 5.69
- pKd (GRID2IP_1, A4D2P6; [2]): below the threshold
- pKd (LIN7C, Q9NUP9; [2]): 5.21
- pKd (TJP3_3, O95049; [2]): below the threshold
- pKd (SCRIB_2, Q14160; [2]): 5.14
- pKd (HTRA2, O43464; [2]): below the threshold
- pKd (TJP1_3, Q07157; [2]): below the threshold
- pKd (PICK1, Q9NRD5; [2]): below the threshold
- pKd (Inadl_10, Q8NI35; [2]): 4.17
- pKd (TJP1_2, Q07157; [2]): below the threshold
- pKd (Inadl_1, Q8NI35; [2]): below the threshold
- pKd (MAGI3_2, Q5TCQ9; [2]): 3.81
- pKd (DLG5_1, Q8TDM6; [2]): below the threshold
- pKd (SNTB1, Q13884; [2]): 5.41
- pKd (LNX1_1, Q8TBB1; [2]): 3.97
- pKd (GRIP2_7, Q9C0E4; [2]): below the threshold
- pKd (DFNB31_3, Q9P202; [2]): below the threshold
- pKd (DFNB31_2, Q9P202; [2]): below the threshold
- pKd (GRIP1_7, Q9Y3R0; [2]): below the threshold
- pKd (NHERF4_1, Q86UT5-2; [2]): 4.71
- pKd (LNX2_3, Q8N448; [2]): below the threshold
- pKd (MPDZ_10, O75970; [2]): below the threshold
- pKd (CASK, O14936; [2]): below the threshold
- pKd (GRID2IP_2, A4D2P6; [2]): 4.54
- pKd (MPP7, Q5T2T1; [2]): 3.81
- pKd (GRIP2_5, Q9C0E4; [2]): below the threshold
B2: SLC15A5, A6NIM6 (peptide)
chain: SSIDLWETAL
